# Patent US9586990B2, “Enzymes for transforming ergopeptines and method therefor” (Erber Aktiengesellschaft, priority 2012, dated 2017)
# B1: enzyme with the sequence ID No. 1: α/β-hydrolase with catalytic triad S94-D234-H270, coded by gene sequence ID No. 2, cleaving ergopeptines in the cyclol ring (protein, listed as Rhodococcus erythropolis)
# chain: MPLVVLSDGTRIHVETSGNGVPALVPCVGSSVPFERTFGEELKTDIQYNFVEVRGTSRSDGEPSEVASLDRISDDLEEVRQLLGLDKVIALGQSRNGMMAAHYAQKYPNSVLHLVTIGTPASLSMIKNEEYWNAFADDERKRLRAENDAAMEREGLLDLDNLNTAEKIVRLFDLEGAVYFYDPTTLMNDWWDASLLSRTFEVVMASNMGWADFDLVQTLQNSDVPAFVTFGKYDFMVSPLPKPGNPVDGKAGLFEDIPGVRVEVFEKSGHFPYWEQEQEFARRYRDWVATLPESAVRAAEAMTPNGIRQ
# Assays:
# [1] = assay for reacting the six ergopeptines and their isomeric forms; type: biochemical; conditions: 1.58 μg/ml enzyme, concentrations equimolar to 10 mg/kg ergotamine; pH 7.0, 25° C.; FIG. 2
# Method: (§1) The gene with the sequence ID No. 2, which codes for an α/β-hydrolase comprising a catalytic triad of S94-D234-H270, was cloned into the expression vector pET28a(+) by applying standard methods, transformed and expressed in E. coli. Following the expression in E. coli BL21(DE3), the his-tagged enzyme was purified by affinity chromatography. The enzyme concentration was determined using a Pierce BSA Protein Assay Kit, and the enzyme was used in activity assays. The assays were carried out in 50 mM sodium phosphate buffer (pH 7.0) at 25° C.
# A further assay for reacting the six ergopeptines, namely ergotamine, ergovaline, ergocomine, ergocristine, ergocryptine or ergosine, and their respective isomeric forms, namely ergotaminine, ergovalinine, ergocominine, ergocristinine, ergocryptinine and ergosinine, used 1.58 μg/ml of the enzyme with sequence ID No. 1 and 10 mg/kg ergotamine, or the equimolar (summation) concentrations of the remaining ergopeptines or their epimers.
# The samples were analyzed using HPLC-FLD or HPLC-MS/MS, each by analytically determining the respective concentration of the sum of the respective epimers. […] During the continued reaction course, the conversion of metabolite 1 to ergine was detected.
# [2] = temperature stability of the enzyme; type: biochemical
# Method: In order to determine the temperature stability, the enzyme was incubated for 1 h at varying temperatures ranging from 10° C. to 60° C. After this, the enzyme solutions were incubated at concentrations of 0.1 μg/ml in Teorell-Stenhagen universal buffer (pH 7.0) with 0.1 mg/ml BSA and 5 mg/kg ergotamine at 25° C.
# [3] = activity (detoxification) assay of the purified his-tagged enzyme with ergotamine; type: biochemical; conditions: FIG. 1; 50 mM sodium phosphate buffer pH 7.0, 25° C.; enzyme 0.079 μg/ml, ergotamine 5 mg/kg
# Method: as §1
# In the context of the detoxification assays, enzyme concentrations of 0.079 μg/ml and ergotamine concentrations of 5 mg/kg were used.
# The samples were analyzed using HPLC-FLD or HPLC-MS/MS, each by analytically determining the respective concentration of the sum of the respective epimers. Simultaneously with the determination of the ergopeptine concentration during the enzymatic reaction, the formation of the ergo hydroxy acid (metabolite 1) and of the ergoproline cyclodipeptide (metabolite 2) was observed. During the continued reaction course, the conversion of metabolite 1 to ergine was detected.
# [4] = pH stability of the enzyme; type: biochemical; conditions: 1 h at 25° C. at pH 2 to pH 12; then assay at pH 7.0, 25° C.
# Method: In order to determine the pH stability, the enzyme was incubated for 1 h at 25° C. at varying pH values ranging from pH 2 to pH 12. After this, the enzyme solutions in concentrations of 0.1 μg/ml were incubated with 0.1 mg/ml BSA and 5 mg/kg ergotamine in Teorell-Stenhagen universal buffer (pH 7.0) at 25° C.
# [5] = degradation assay in the in-vitro rumen model; conditions: 1 μg/ml enzyme, 5 mg/kg ergotamine, rumen juice diluted 1:1, 39° C., HPLC/ESI-MS/MS
# [6] = temperature range of the activity; type: biochemical; conditions: 0.1 μg/ml enzyme, 5 mg/kg ergotamine, Teorell-Stenhagen universal buffer pH 9.0
molecule,measurement,setting,value
B1,reaction courses of all other ergopeptines and their isomeric forms relative to ergotamine,[1],comparable
same,temperature up to which the enzyme is stable,"[2]; 1 h preincubation at 10° C. to 60° C., then 0.1 μg/ml enzyme, pH 7.0, 0.1 mg/ml BSA, 5 mg/kg ergotamine, 25° C.",≤ 30 °C
same,activity after incubation at 40° C.,"[2]; 1 h preincubation at 40° C., then assay at pH 7.0, 25° C.",still displaying some activity
same,time to almost complete degradation of ergotamine to ergine,[3],≤ 4 h
same,activity outside the pH 6 to pH 9 range after preincubation,[4],strongly decreasing activity
same,conversion of ergotamine in the rumen model,[5],completely converted into ergine and lysergic acid
same,"temperature optimum of activity, based on the starting speed",[6],35 °C
